The values that follow come from patent US20260158147A1.

Test [1] addresses aBeta (UniProt P05067). As to the kind of experiment: ELISA; commercial. In general terms: ELISA stands for enzyme-linked immunosorbent assay.
Test [2] addresses aBeta (UniProt P05067). As to the kind of experiment: ELISA.

Usually EC50 stands for the concentration at which the effect is half-maximal. A high value points to weaker potency.

As for Lecanemab (commercial), in the test with aBeta [1], the half-maximal effective concentration (EC50) is 0.115 nM.
Lecanemab (unshuttled): the EC50 with aBeta [2] turned out to be 0.105 nM.
